Assay results published in the supplement of paper PMC7877785.
± gives the uncertainty stated by the source.

Assay: self-splicing fitness, log relative to wild type (ln ratio); higher = more splicing; Tetrahymena group I intron in knt gene, E. coli kanamycin selection, DiMSum; sequences stand for … in CUCUCU…GGAGGGAAAAGUUAUCAGGCAUGCACCUGGUAGCUAGUCUUUAAACCAAUAGAUUGCAUCGGUUUAAAAGGCAAGACCGUCAAAUUGCGGGAAAGGGGUCAACAGCCGUUCAGUACCAAGUCUCAGGGGAAACUUUGAGAUGGCCUUGCAAAGGGUAUGGUAAUAAGCUGACGGACAUGGUCCUAACCACGCAGCCAAGUCCUAAGUCAACAGAUCUUCUGUUGAUAUGGAUGCAGUUCACAGACUAAAUGUCGGUCGGGGAAGAUGUAUUCUUCUCAUAAGAUAUAGUCGGACCUCUCCUUAAUGGGAGCUAGCGGAUGAAGUGAUGCAACACUGGAGCCGCUGGGAACUAAUUUGUAUGCGAAAGUAUAUUGAUUAGUUUUGGAGUACUCGUGGUCG
Summary of the method: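 Library with all eight P1ex-region intron nucleotides randomised, intron inside the knt kanamycin-resistance gene on pET-22b(+), in E. coli BL21(DE3). Cells grew overnight at 37°C or 30°C on LB agar with or without 25 μg/mL kanamycin (plus 100 μg/mL carbenicillin, 50 μM IPTG, 0.2% rhamnose), in six replicate transformations. Pooled colonies were amplicon-sequenced on Illumina HiSeq 2500. DiMSum fitness is the error-weighted combination of wild-type-normalised replicate fold changes, kanamycin versus none.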

| Sequence | self-splicing fitness (ln) (30 °C) | self-splicing fitness (ln) (37 °C) |
| --- | --- | --- |
| CUCUAGCAAUAUUACGGGGG | -3.07 ± 0.3 | -2.38 ± 0.26 |
| CUCUAGCAAUAUUACGGGUA | -2.21 ± 0.14 | -1.05 ± 0.12 |
| CUCUAGCAAUAUUACGGUUA | – | -3.24 ± 0.29 |
| CUCUAGCAAUAUUACGUAAU | -3.59 ± 0.26 | -3.77 ± 0.46 |
| CUCUAGCAAUAUUACGUGGC | -3.7 ± 0.22 | -2.82 ± 0.24 |
| CUCUAGCAAUAUUACGUGUA | -3.62 ± 0.21 | -4.02 ± 0.27 |
| CUGAAGCAAUAUUACGACAA | -0.913 ± 0.13 | 0.0189 ± 0.19 |
| CUGAAGCAAUAUUACGACAG | -0.755 ± 0.063 | 0.511 ± 0.11 |
| CUGAAGCAAUAUUACGAGAA | -3.29 ± 0.3 | – |
| CUGAAGCAAUAUUACGCAAU | -3.09 ± 0.24 | -2.67 ± 0.36 |
| CUGAAGCAAUAUUACGCAGA | -3.67 ± 0.19 | -2.71 ± 0.21 |
| CUGAAGCAAUAUUACGCCGC | -3.17 ± 0.35 | – |
| CUGAAGCAAUAUUACGCGUC | -3.62 ± 0.33 | -3.55 ± 0.35 |
| CUGAAGCAAUAUUACGGAUA | -4.19 ± 0.22 | -1.19 ± 0.18 |
| CUGAAGCAAUAUUACGGCUA | -3.03 ± 0.25 | -1.22 ± 0.25 |
| CUGAAGCAAUAUUACGGUCC | -3.78 ± 0.34 | -2.38 ± 0.46 |
| CUGAAGCAAUAUUACGGUCG | 0.651 ± 0.072 | -0.32 ± 0.082 |
| CUGAAGCAAUAUUACGGUUU | -3.24 ± 0.22 | -2.72 ± 0.18 |
| CUGAAGCAAUAUUACGUAGA | -4.28 ± 0.34 | -1.75 ± 0.27 |
| CUGAAGCAAUAUUACGUAUG | -0.151 ± 0.056 | -0.154 ± 0.068 |
| CUGAAGCAAUAUUACGUGCG | 0.0994 ± 0.061 | -0.325 ± 0.073 |
| CUGAAGCAAUAUUACGUGGU | -3.3 ± 0.15 | -1.41 ± 0.18 |
| CUGAAGCAAUAUUACGUGUU | -3.7 ± 0.14 | -2.13 ± 0.17 |
| CUGAAGCAAUAUUACGUUUG | -1.52 ± 0.061 | -1.23 ± 0.099 |
| CUGCAGCAAUAUUACGAAGC | -2.78 ± 0.28 | -2.6 ± 0.28 |
| CUGCAGCAAUAUUACGACCG | 0.161 ± 0.088 | 0.198 ± 0.12 |

| Sequence | self-splicing fitness (ln) (30 °C) | self-splicing fitness (ln) (37 °C) |
| --- | --- | --- |
| CUGCAGCAAUAUUACGAGCC | -2.9 ± 0.31 | – |
| CUGCAGCAAUAUUACGAUAC | -2.99 ± 0.34 | – |
| CUGCAGCAAUAUUACGAUAU | -3.64 ± 0.28 | -2.41 ± 0.3 |
| CUGCAGCAAUAUUACGAUGC | -3.13 ± 0.24 | -1.92 ± 0.43 |
| CUGCAGCAAUAUUACGCAGA | -2.32 ± 0.31 | -2.97 ± 0.38 |
| CUGCAGCAAUAUUACGCUAC | -4.2 ± 0.36 | -2.17 ± 0.16 |
| CUGCAGCAAUAUUACGCUCG | -2.3 ± 0.16 | -0.671 ± 0.16 |
| CUGCAGCAAUAUUACGGAAA | -2.27 ± 0.21 | -1.56 ± 0.38 |
| CUGCAGCAAUAUUACGGAGU | -3.05 ± 0.14 | -1.65 ± 0.13 |
| CUGCAGCAAUAUUACGGAUC | – | -2.38 ± 0.21 |
| CUGCAGCAAUAUUACGGCAG | -2.63 ± 0.22 | -2.27 ± 0.2 |
| CUGCAGCAAUAUUACGGCUC | -2.57 ± 0.22 | -2.96 ± 0.43 |
| CUGCAGCAAUAUUACGGGCA | -3.01 ± 0.17 | -1.06 ± 0.14 |
| CUGCAGCAAUAUUACGGGUU | -3.86 ± 0.17 | -2.74 ± 0.14 |
| CUGCAGCAAUAUUACGUCAG | -3.61 ± 0.28 | -2.08 ± 0.21 |
| CUGCAGCAAUAUUACGUCAU | -2.86 ± 0.14 | -2.06 ± 0.13 |
| CUGCAGCAAUAUUACGUCCG | -0.43 ± 0.094 | 0.136 ± 0.13 |
| CUGCAGCAAUAUUACGUCGU | -4.05 ± 0.25 | -3.44 ± 0.25 |
| CUGCAGCAAUAUUACGUGCU | -4.44 ± 0.23 | -2.54 ± 0.19 |
| CUGCAGCAAUAUUACGUUCU | -2.88 ± 0.21 | -1.88 ± 0.2 |
| CUGCAGCAAUAUUACGUUUA | -2.64 ± 0.19 | -1.21 ± 0.19 |
| CUGGAGCAAUAUUACGAAUA | -3.07 ± 0.4 | -2.15 ± 0.47 |
| CUGGAGCAAUAUUACGACCA | -1.68 ± 0.31 | -1.61 ± 0.38 |
| CUGGAGCAAUAUUACGAGCU | – | -1.66 ± 0.46 |
| CUGGAGCAAUAUUACGAGGA | -3.18 ± 0.33 | – |
| CUGGAGCAAUAUUACGAUAG | -2.16 ± 0.25 | -1.38 ± 0.22 |

| Sequence | self-splicing fitness (ln) (30 °C) | self-splicing fitness (ln) (37 °C) |
| --- | --- | --- |
| CUGGAGCAAUAUUACGCAUA | – | -2.22 ± 0.37 |
| CUGGAGCAAUAUUACGCCUA | -1.84 ± 0.36 | -1.44 ± 0.32 |
| CUGGAGCAAUAUUACGCCUG | -1.22 ± 0.22 | -1.39 ± 0.28 |
| CUGGAGCAAUAUUACGCGAC | -0.944 ± 0.27 | -1.84 ± 0.36 |
| CUGGAGCAAUAUUACGCUUG | -3.94 ± 0.34 | -2.35 ± 0.45 |
| CUGGAGCAAUAUUACGGAAA | -2.47 ± 0.33 | -2.78 ± 0.35 |
| CUGGAGCAAUAUUACGGACA | -3.7 ± 0.43 | -2.45 ± 0.46 |
| CUGGAGCAAUAUUACGGCCA | – | -1.99 ± 0.24 |
| CUGGAGCAAUAUUACGGGAA | -2.68 ± 0.31 | -2.36 ± 0.27 |
| CUGGAGCAAUAUUACGGGAU | -4.01 ± 0.37 | -1.91 ± 0.28 |
| CUGGAGCAAUAUUACGUGAG | -0.772 ± 0.049 | -0.213 ± 0.063 |
| CUGGAGCAAUAUUACGUGGG | -3.7 ± 0.2 | -2.52 ± 0.26 |
| CUGGAGCAAUAUUACGUGUA | -3.32 ± 0.32 | -1.57 ± 0.37 |
| CUGGAGCAAUAUUACGUGUG | -1.53 ± 0.11 | -0.75 ± 0.13 |
| CUGGAGCAAUAUUACGUGUU | -3.3 ± 0.16 | -3.31 ± 0.21 |
| CUGUAGCAAUAUUACGACAA | -0.568 ± 0.11 | 0.0313 ± 0.11 |
| CUGUAGCAAUAUUACGACCA | -1.45 ± 0.38 | – |
| CUGUAGCAAUAUUACGACUA | -1.74 ± 0.42 | -0.817 ± 0.3 |
| CUGUAGCAAUAUUACGAGGC | -3.31 ± 0.37 | -3.04 ± 0.32 |
| CUGUAGCAAUAUUACGAGUC | – | -2.05 ± 0.31 |
| CUGUAGCAAUAUUACGAUUU | – | -2.62 ± 0.36 |
| CUGUAGCAAUAUUACGCACA | -2.05 ± 0.13 | -1.19 ± 0.16 |
| CUGUAGCAAUAUUACGCGAG | -3.06 ± 0.29 | -2.13 ± 0.25 |
| CUGUAGCAAUAUUACGCGUA | -3.3 ± 0.3 | -2.89 ± 0.25 |
| CUGUAGCAAUAUUACGCUUG | -2.62 ± 0.14 | -2.02 ± 0.16 |
| CUGUAGCAAUAUUACGGCCC | – | -0.731 ± 0.38 |

| Sequence | self-splicing fitness (ln) (30 °C) | self-splicing fitness (ln) (37 °C) |
| --- | --- | --- |
| CUGUAGCAAUAUUACGGCCU | – | -3.02 ± 0.34 |
| CUGUAGCAAUAUUACGGCUA | – | -1.51 ± 0.39 |
| CUGUAGCAAUAUUACGGGGG | -4.4 ± 0.37 | -2.68 ± 0.31 |
| CUGUAGCAAUAUUACGUAUC | -4.3 ± 0.47 | -1.57 ± 0.38 |
| CUGUAGCAAUAUUACGUAUG | -0.387 ± 0.11 | -0.224 ± 0.16 |
| CUGUAGCAAUAUUACGUCGG | -3.47 ± 0.2 | -1.87 ± 0.18 |
| CUGUAGCAAUAUUACGUGCA | -2.56 ± 0.18 | -2.5 ± 0.16 |
| CUGUAGCAAUAUUACGUUGG | -3.56 ± 0.13 | -1.46 ± 0.11 |
| CUGUAGCAAUAUUACGUUUC | -3.58 ± 0.19 | -2.99 ± 0.32 |
| CUUAAGCAAUAUUACGAAAA | -1.9 ± 0.26 | – |
| CUUAAGCAAUAUUACGACGA | -3.58 ± 0.25 | -2.61 ± 0.23 |
| CUUAAGCAAUAUUACGAGAG | -4.39 ± 0.42 | -2.48 ± 0.45 |
| CUUAAGCAAUAUUACGAGCG | -0.691 ± 0.1 | -0.156 ± 0.15 |
| CUUAAGCAAUAUUACGAGUA | -3.63 ± 0.24 | -1.94 ± 0.2 |
| CUUAAGCAAUAUUACGAUAG | -2.01 ± 0.15 | -0.283 ± 0.15 |
| CUUAAGCAAUAUUACGAUGU | -3.88 ± 0.37 | -0.792 ± 0.21 |
| CUUAAGCAAUAUUACGCAAG | -3.07 ± 0.41 | -2.58 ± 0.34 |
| CUUAAGCAAUAUUACGCCAA | -2.46 ± 0.42 | -2.43 ± 0.33 |
| CUUAAGCAAUAUUACGCUGC | – | -1 ± 0.35 |
| CUUAAGCAAUAUUACGGAAA | -3.23 ± 0.38 | -2.1 ± 0.28 |
| CUUAAGCAAUAUUACGGACU | -3.14 ± 0.15 | -1.62 ± 0.17 |
| CUUAAGCAAUAUUACGGAUG | -0.76 ± 0.056 | -0.0373 ± 0.077 |
| CUUAAGCAAUAUUACGUAUA | -2.9 ± 0.23 | -3.19 ± 0.29 |
